In the supplement of paper PMC10567573:

B1: TRIM63 (parent)
chain: ANPYWTSRGSSVSMSGGRFRCPTC

Variants of: B1
Test: protein stability index of a GFP-peptide fusion (GPS, HEK-293T) (PSI 1-6); higher = more stable
Conditions: c terminus: a fixed tail appended
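Note: lentivirally expressed fusions sorted by FACS into six bins by GFP to DsRed ratio, PSI derived from sequencing read proportions per bin multiplied by bin number.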

Variant	protein stability index
ANPWWTSRGSSVSMSGGRFRCPTC [Y4W]	2.18
ANPEWTSRGSSVSMSGGRFRCPTC [Y4E]	2.1
ANPVWTSRGSSVSMSGGRFRCPTC [Y4V]	1.56
ANPKWTSRGSSVSMSGGRFRCPTC [Y4K]	2.09
ANPTWTSRGSSVSMSGGRFRCPTC [Y4T]	2.17
ANPSWTSRGSSVSMSGGRFRCPTC [Y4S]	1.65
ANPIWTSRGSSVSMSGGRFRCPTC [Y4I]	2.8
ANPFWTSRGSSVSMSGGRFRCPTC [Y4F]	1.57
ANPQWTSRGSSVSMSGGRFRCPTC [Y4Q]	1.69
ANPDWTSRGSSVSMSGGRFRCPTC [Y4D]	2.51
ANPGWTSRGSSVSMSGGRFRCPTC [Y4G]	1.36
ANPMWTSRGSSVSMSGGRFRCPTC [Y4M]	1.75
ANPCWTSRGSSVSMSGGRFRCPTC [Y4C]	2.92
ANPRWTSRGSSVSMSGGRFRCPTC [Y4R]	1.47
ANPNWTSRGSSVSMSGGRFRCPTC [Y4N]	2.34
ANPAWTSRGSSVSMSGGRFRCPTC [Y4A]	1.33
GNPYWTSRGSSVSMSGGRFRCPTC [A1G]	1.66
DNPYWTSRGSSVSMSGGRFRCPTC [A1D]	1.67
MNPYWTSRGSSVSMSGGRFRCPTC [A1M]	2.07
QNPYWTSRGSSVSMSGGRFRCPTC [A1Q]	1.49
SNPYWTSRGSSVSMSGGRFRCPTC [A1S]	2.69
KNPYWTSRGSSVSMSGGRFRCPTC [A1K]	2.1
LNPYWTSRGSSVSMSGGRFRCPTC [A1L]	1.89
NNPYWTSRGSSVSMSGGRFRCPTC [A1N]	2.18

Variant	protein stability index
FNPYWTSRGSSVSMSGGRFRCPTC [A1F]	2.58
TNPYWTSRGSSVSMSGGRFRCPTC [A1T]	1.88
HNPYWTSRGSSVSMSGGRFRCPTC [A1H]	1.88
INPYWTSRGSSVSMSGGRFRCPTC [A1I]	1.53
PNPYWTSRGSSVSMSGGRFRCPTC [A1P]	1.28
RNPYWTSRGSSVSMSGGRFRCPTC [A1R]	2.08
ENPYWTSRGSSVSMSGGRFRCPTC [A1E]	2.31
VNPYWTSRGSSVSMSGGRFRCPTC [A1V]	2.21
AMPYWTSRGSSVSMSGGRFRCPTC [N2M]	1.6
ATPYWTSRGSSVSMSGGRFRCPTC [N2T]	1.73
AGPYWTSRGSSVSMSGGRFRCPTC [N2G]	1.84
AHPYWTSRGSSVSMSGGRFRCPTC [N2H]	2.3
AIPYWTSRGSSVSMSGGRFRCPTC [N2I]	3.56
AAPYWTSRGSSVSMSGGRFRCPTC [N2A]	2.08
ALPYWTSRGSSVSMSGGRFRCPTC [N2L]	1.37
AEPYWTSRGSSVSMSGGRFRCPTC [N2E]	2.51
ARPYWTSRGSSVSMSGGRFRCPTC [N2R]	2.05
ASPYWTSRGSSVSMSGGRFRCPTC [N2S]	1.89
AKPYWTSRGSSVSMSGGRFRCPTC [N2K]	1.59
AQPYWTSRGSSVSMSGGRFRCPTC [N2Q]	1.23
APPYWTSRGSSVSMSGGRFRCPTC [N2P]	1.76
ACPYWTSRGSSVSMSGGRFRCPTC [N2C]	2.43
AFPYWTSRGSSVSMSGGRFRCPTC [N2F]	1.6
AYPYWTSRGSSVSMSGGRFRCPTC [N2Y]	2.14

Variant	protein stability index
ANPYWTARGSSVSMSGGRFRCPTC [S7A]	2.41
ANPYLTSRGSSVSMSGGRFRCPTC [W5L]	1.73
ANPYTTSRGSSVSMSGGRFRCPTC [W5T]	1.76
ANPYFTSRGSSVSMSGGRFRCPTC [W5F]	1.41
ANPYNTSRGSSVSMSGGRFRCPTC [W5N]	2.44
ANPYPTSRGSSVSMSGGRFRCPTC [W5P]	2.44
ANPYETSRGSSVSMSGGRFRCPTC [W5E]	2.25
ANPYVTSRGSSVSMSGGRFRCPTC [W5V]	2.59
ANPYSTSRGSSVSMSGGRFRCPTC [W5S]	1.9
ANPYATSRGSSVSMSGGRFRCPTC [W5A]	1.92
ANPYGTSRGSSVSMSGGRFRCPTC [W5G]	2.45
ANPYCTSRGSSVSMSGGRFRCPTC [W5C]	1.6
ANPYQTSRGSSVSMSGGRFRCPTC [W5Q]	2.62
ANPYDTSRGSSVSMSGGRFRCPTC [W5D]	2.19
ANPYMTSRGSSVSMSGGRFRCPTC [W5M]	2.16
ANPYYTSRGSSVSMSGGRFRCPTC [W5Y]	1.7
ANPYHTSRGSSVSMSGGRFRCPTC [W5H]	2.17
ANPYWPSRGSSVSMSGGRFRCPTC [T6P]	1.66
ANPYWKSRGSSVSMSGGRFRCPTC [T6K]	1.56
ANPYWQSRGSSVSMSGGRFRCPTC [T6Q]	3.06
ANPYWWSRGSSVSMSGGRFRCPTC [T6W]	1.48
ANPYWGSRGSSVSMSGGRFRCPTC [T6G]	2.44
ANPYWYSRGSSVSMSGGRFRCPTC [T6Y]	1.69
ANPYWNSRGSSVSMSGGRFRCPTC [T6N]	1.74

Variant	protein stability index
ANPYWHSRGSSVSMSGGRFRCPTC [T6H]	2.12
ANPYWMSRGSSVSMSGGRFRCPTC [T6M]	2.24
ANPYWSSRGSSVSMSGGRFRCPTC [T6S]	1.45
ANPYWISRGSSVSMSGGRFRCPTC [T6I]	1.84
ANPYWCSRGSSVSMSGGRFRCPTC [T6C]	1.58
ANPYWRSRGSSVSMSGGRFRCPTC [T6R]	2.2
ANPYWESRGSSVSMSGGRFRCPTC [T6E]	1.51
ANPYWDSRGSSVSMSGGRFRCPTC [T6D]	1.83
ANPYWASRGSSVSMSGGRFRCPTC [T6A]	2.1
ANAYWTSRGSSVSMSGGRFRCPTC [P3A]	2.08
ANQYWTSRGSSVSMSGGRFRCPTC [P3Q]	2.2
ANIYWTSRGSSVSMSGGRFRCPTC [P3I]	2.14
ANTYWTSRGSSVSMSGGRFRCPTC [P3T]	2.08
ANFYWTSRGSSVSMSGGRFRCPTC [P3F]	2.13
ANRYWTSRGSSVSMSGGRFRCPTC [P3R]	1.84
ANGYWTSRGSSVSMSGGRFRCPTC [P3G]	1.18
ANNYWTSRGSSVSMSGGRFRCPTC [P3N]	1.07
ANEYWTSRGSSVSMSGGRFRCPTC [P3E]	1.91
ANSYWTSRGSSVSMSGGRFRCPTC [P3S]	1.36
ANMYWTSRGSSVSMSGGRFRCPTC [P3M]	1.54
ANHYWTSRGSSVSMSGGRFRCPTC [P3H]	2.82
ANYYWTSRGSSVSMSGGRFRCPTC [P3Y]	2.38
